In article PMC8924993:

Target: integrin αIIbβ3 (human (endogenous in HEL)) (UniProt P08514)
Experiment: proximity ligation

Chain of talin (Q9Y490 whole entry): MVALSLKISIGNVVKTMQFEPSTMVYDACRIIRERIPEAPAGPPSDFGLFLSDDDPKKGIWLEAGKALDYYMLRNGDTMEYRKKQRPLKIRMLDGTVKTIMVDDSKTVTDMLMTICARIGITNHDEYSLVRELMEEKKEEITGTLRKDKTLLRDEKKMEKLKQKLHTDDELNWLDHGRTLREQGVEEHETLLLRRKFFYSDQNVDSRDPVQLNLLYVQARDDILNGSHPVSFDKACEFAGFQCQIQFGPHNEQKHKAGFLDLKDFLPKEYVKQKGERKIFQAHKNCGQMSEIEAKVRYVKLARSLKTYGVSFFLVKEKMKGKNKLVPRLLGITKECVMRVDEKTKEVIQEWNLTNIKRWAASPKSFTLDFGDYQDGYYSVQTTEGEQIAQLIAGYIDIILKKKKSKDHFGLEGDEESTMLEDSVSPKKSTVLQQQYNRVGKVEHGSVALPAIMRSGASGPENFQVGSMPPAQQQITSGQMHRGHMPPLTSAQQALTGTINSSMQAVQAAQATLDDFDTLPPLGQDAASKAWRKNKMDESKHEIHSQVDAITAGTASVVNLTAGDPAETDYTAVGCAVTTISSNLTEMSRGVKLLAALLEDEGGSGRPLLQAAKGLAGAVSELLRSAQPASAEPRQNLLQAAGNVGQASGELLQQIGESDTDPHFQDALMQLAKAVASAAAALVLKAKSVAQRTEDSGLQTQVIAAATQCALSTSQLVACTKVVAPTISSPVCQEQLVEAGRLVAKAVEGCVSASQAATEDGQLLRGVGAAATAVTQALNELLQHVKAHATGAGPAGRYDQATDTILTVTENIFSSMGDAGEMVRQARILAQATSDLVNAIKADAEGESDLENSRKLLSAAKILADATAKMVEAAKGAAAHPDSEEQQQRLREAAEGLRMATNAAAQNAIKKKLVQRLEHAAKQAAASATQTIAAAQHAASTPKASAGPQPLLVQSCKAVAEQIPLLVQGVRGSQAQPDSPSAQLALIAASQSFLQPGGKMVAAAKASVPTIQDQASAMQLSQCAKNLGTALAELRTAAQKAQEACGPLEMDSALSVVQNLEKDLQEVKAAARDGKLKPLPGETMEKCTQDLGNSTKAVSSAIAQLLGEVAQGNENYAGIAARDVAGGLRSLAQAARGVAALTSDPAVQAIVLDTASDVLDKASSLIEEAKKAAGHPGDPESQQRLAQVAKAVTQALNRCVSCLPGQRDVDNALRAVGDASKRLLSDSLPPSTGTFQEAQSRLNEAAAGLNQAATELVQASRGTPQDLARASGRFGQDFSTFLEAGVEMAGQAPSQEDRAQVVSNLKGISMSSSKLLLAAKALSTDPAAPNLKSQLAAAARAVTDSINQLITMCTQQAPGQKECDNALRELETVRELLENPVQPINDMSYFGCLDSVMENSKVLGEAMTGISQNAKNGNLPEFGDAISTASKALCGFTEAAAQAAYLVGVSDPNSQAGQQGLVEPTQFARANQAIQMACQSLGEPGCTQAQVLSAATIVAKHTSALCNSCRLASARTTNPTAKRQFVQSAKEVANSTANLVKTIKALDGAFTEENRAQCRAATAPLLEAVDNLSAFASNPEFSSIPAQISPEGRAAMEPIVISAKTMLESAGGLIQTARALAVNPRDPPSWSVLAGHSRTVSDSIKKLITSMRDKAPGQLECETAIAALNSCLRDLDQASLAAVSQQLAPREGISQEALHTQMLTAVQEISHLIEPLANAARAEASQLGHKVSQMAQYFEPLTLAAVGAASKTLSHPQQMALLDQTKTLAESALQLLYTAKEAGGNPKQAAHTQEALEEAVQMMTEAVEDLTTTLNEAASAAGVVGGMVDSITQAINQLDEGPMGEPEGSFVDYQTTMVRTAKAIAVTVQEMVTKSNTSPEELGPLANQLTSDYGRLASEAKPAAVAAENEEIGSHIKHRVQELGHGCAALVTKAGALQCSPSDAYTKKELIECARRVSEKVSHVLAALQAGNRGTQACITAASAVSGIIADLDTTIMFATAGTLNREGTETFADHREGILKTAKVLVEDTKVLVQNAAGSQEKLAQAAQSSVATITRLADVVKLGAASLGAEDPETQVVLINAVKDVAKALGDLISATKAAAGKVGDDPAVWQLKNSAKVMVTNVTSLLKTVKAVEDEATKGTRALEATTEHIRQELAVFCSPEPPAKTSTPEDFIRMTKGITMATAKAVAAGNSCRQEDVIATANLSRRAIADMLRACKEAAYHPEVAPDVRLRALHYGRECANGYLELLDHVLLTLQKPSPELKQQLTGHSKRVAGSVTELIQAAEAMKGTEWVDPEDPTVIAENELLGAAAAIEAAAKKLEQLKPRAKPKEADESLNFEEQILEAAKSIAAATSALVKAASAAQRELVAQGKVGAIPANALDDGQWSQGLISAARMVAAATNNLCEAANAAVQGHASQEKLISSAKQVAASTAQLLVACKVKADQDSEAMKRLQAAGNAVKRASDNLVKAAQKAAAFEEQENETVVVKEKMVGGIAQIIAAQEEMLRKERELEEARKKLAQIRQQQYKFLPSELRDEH

| Substance | PLA dots/cell (with PMA; FLNa-Del1 cells) [dots/cell] | PLA dots/cell (without PMA; FLNa-Del1 cells) [dots/cell] | PLA dots/cell (no PMA; control, FLNa WT and FLNa-Del1 cells) [dots/cell] | PLA dots/cell (with 10 µM ROCK inhibitor Y-27632; FLNa WT cells, Figure 5H) [dots/cell] | PLA dots/cell (with PMA and 10 µM EHop-016; FLNa-Del1 cells) [dots/cell] | PLA dots/cell (with PMA and 10 µM Y-27632; FLNa WT cells) [dots/cell] | PLA dots/cell (with PMA and Y-27632; FLNa-Del1 cells) [dots/cell] | PLA dots/cell (with PMA, without EHop-016; FLNa-Del1 cells) [dots/cell] | PLA dots/cell (with PMA, without Y-27632; FLNa WT cells) [dots/cell] | PLA dots/cell (with PMA, without Y-27632; FLNa-Del1 cells) [dots/cell] | PLA dots/cell (with PMA; FLNa WT cells) [dots/cell] | PLA dots/cell (with PMA; FLNa-Del2 cells) [dots/cell] | PLA dots/cell (with PMA; FLNa-WT cells) [dots/cell] | PLA dots/cell (without ROCK inhibitor; FLNa WT cells, Figure 5H) [dots/cells] |
| --- | --- | --- | --- | --- | --- | --- | --- | --- | --- | --- | --- | --- | --- | --- |
| FLNa-Del1, filamin A mutant lacking the N-terminal actin-binding domain (CH1-CH2) (domain or fragment) | 7.2 | 17.6 |  |  |  |  |  |  |  |  |  |  |  |  |
| talin (from UniProt Q9Y490 1-2541) (natural protein) | 15 | 4.6 | 5 | 17.7 | 4.4 | 10.8 | 13.2 | 20.4 | 4 | 14.9 | 8.2 | 21.2 | 7.1 | 9.1 |
